We go through two molecules from patent US20120282285A1 (RIGSHOSPITALET, published 2012).

Test [1] deals with T1, Ficolin-3 (human, UniProt O75636 24-299).
T1 construct: Serum Ficolin-3 in the co-precipitations, ELISA and gradient. rFicolin-3 on acetylated BSA in the C4 deposition assays; also called rFicolin-3; recombinant human Ficolin-3
The test can be described thus: 10-30% sucrose gradient of serum; fractions read by western blot. Here is the method: (§1) Normal human serum was subjected to sucrose gradient separation. 0.75 ml serum was loaded onto 40 ml centrifugation columns consisting of 10-30% sucrose gradients buffered in 10 mM Tris, 145 mM NaCl, 3 mM CaCl₂ and human serum albumin at 30 μg/ml. The loaded columns were centrifuged at 150.000×g in vacuum for 24 hours at 4° C. in a L70 Beckmann ultracentrifuge with a SW28 rotor head. 1.5 ml fractions were collected from the bottom and analyzed by specific ELISA or immunoblotting for the following antigens: MAP-1, MASP-1, MASP-2, MASP-3, sMAP, MBL, Ficolin-2 and Ficolin-3. The peaks of the serum IgM (19S) and IgG (7S) were also assessed indicating the molecular […]. Additionally the fractions were analyzed for the capacity to activate exogenously applied C4. […] The C4 deposition was subsequently measured with polyclonal antibodies to C4c (Q 0369, Dako, Glostrup, Denmark).
(§2) In order to investigate the distribution of MAP-1 in relation to associated molecules and to examine how much appears non-associated we subjected normal human serum to density fractionation using a 10-30% sucrose gradient and ultracentrifugation. Subsequently the collected fractions were analyzed for MAP-1, MASP-3, MBL, Ficolin-2 and -3 by ELISA (FIG. 31A) and MAP-1, MASP-1, -2 and -3, sMAP, MBL, Ficolin-2 and -3 by western blotting (FIG. 31B). […]

Test [2] addresses T1, Ficolin-3. The test can be described thus: 10-30% sucrose gradient of serum; fractions read by ELISA and western blot. Here is the method: as §1, §2
In general terms: An ELISA detects its analyte on a solid surface through an enzyme-linked reagent.

T1 sequence (O75636 24-299 limits assumed): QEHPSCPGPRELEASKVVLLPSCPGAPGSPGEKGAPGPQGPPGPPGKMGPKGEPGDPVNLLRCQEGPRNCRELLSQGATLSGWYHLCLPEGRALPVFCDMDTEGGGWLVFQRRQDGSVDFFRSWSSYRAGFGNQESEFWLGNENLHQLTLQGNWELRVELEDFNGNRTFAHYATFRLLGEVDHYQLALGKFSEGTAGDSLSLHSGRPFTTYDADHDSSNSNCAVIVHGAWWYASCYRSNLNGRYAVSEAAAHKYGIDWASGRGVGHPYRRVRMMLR

B1: small MBL-associated protein (sMAP) (other)
chain: TPLGPKWPEPVFGRLASPGFPGEYANDQERRWTLTAPPGYRLRLYFTHFDLELSHLCEYDFVKLSSGAKVLATLCGQESTDTERAPGKDTFYSLGSSLDITFRSDYSNEKPFTGFEAFYAAEDIDECQVAPGEAPTCDHHCHNHLGGFYCSCRAGYVLHRNKRTCSEQSL
notes: Serum protein in the sucrose gradient; also called MAp19; MBL-associated plasma protein of 19 kD
Take B1: in the test with Ficolin-3 [1], the binding result was “binds”.

B2: MBL-Associated Serine Protease-3 (MASP-3) (enzyme)
chain: HTVELNNMFGQIQSPGYPDSYPSDSEVTWNITVPDGFRIKLYFMHFNLESSYLCEYDYVKVETEDQVLATFCGRETTDTEQTPGQEVVLSPGSFMSITFRSDFSNEERFTGFDAHYMAVDVDECKEREDEELSCDHYCHNYIGGYYCSCRFGYILHTDNRTCRVECSDNLFTQRTGVITSPDFPNPYPKSSECLYTIELEEGFMVNLQFEDIFDIEDHPEVPCPYDYIKIKVGPKVLGPFCGEKAPEPISTQSHSVLILFHSDNSGENRGWRLSYRAAGNECPELQPPVHGKIEPSQAKYFFKDQVLVSCDTGYKVLKDNVEMDTFQIECLKDGTWSNKIPTCKIVDCRAPGELEHGLITFSTRNNLTTYKSEIKYSCQEPYYKMLNNNTGIYTCSAQGVWMNKVLGRSLPTCLPECGQPSRSLPSLVKRIIGGRNAEPGLFPWQALIVVEDTSRVPNDKWFGSGALLSASWILTAAHVLRSQRRDTTVIPVSKEHVTVYLGLHDVRDKSGAVNSSAARVVLHPDFNIQNYNHDIALVQLQEPVPLGPHVMPVCLPRLEPEGPAPHMLGLVAGWGISNPNVTVDEIISSGTRTLSDVLQYVKLPVVPHAECKTSYESRSGNYSVTENMFCAGYYEGGKDTCLGDSGGAFVIFDDLSQRWVVQGLVSWGGPEECGSKQVYGVYTKVSNYVDWVWEQMGLPQSVVEPQVER
notes: also called rMASP-3
On to B2, for which, in the test with Ficolin-3 [2], the binding result is listed as “binds”.
